This test addresses VEGFR-2. As to the kind of experiment: cell-based or functional assay.

Consider “VEGF-DΔN (from UniProt O43915 93-354) (ligand)”, for which the activity towards the VEGFR-2 bioassay came to 10 fold.

The values are drawn from US20020102260A1.
